Source: patent publication US20240360228A1 (BIOLEGEND, published 2024)
Values belong to the binder of their own block, whether it stands above or below them.

How the values were obtained:
[1] = molecular target: T1, human CCR8 (human, UniProt P51685 1-355); assay: flow blocking, PBMC CCR8+CD3+; competitor PE-AB5
T1 construct: Native CCR8 on human PBMC (CCR8+ CD3+ or CCR8+ CD4+ lymphocytes); also called chemokine (C-C motif) receptor 8
Method: (§1) For blocking studies, 100 μL of the cell suspension were incubated with 10 μg purified isotype control, AB1, AB2, AB3, AB4, AB5, AB8, AB9, AB10, AB11, AB12, AB13, AB14, AB15, and Commercial ABI antibodies, or isotype control, as blocking agents.
(§2) After incubation with the blocking agent, the cells were incubated with 0.25 μg of the indicated PE-conjugated antibody plus anti-human CD4 APC or anti-human CD3 for another 15 minutes in the dark and then washed 2 times with Cell Staining Buffer, and acquired in a FACSCanto II flow cytometer (BD Biosciences); the data was analyzed using FCS Express (De Novo Software); MFI correspond to the CCR8+ CD4+ lymphocytes or CCR8+ CD3+ lymphocytes.
(§3) Percentage original MFI was calculated by dividing the MFI of samples blocked with AB1, AB2, AB3, AB4, AB5, AB6, AB7, AB8, AB9, AB10, AB11, AB12, AB13, AB14, AB15, and Commercial ABI antibodies, by the MFI of samples blocked with the corresponding isotype control. This value was subtracted from 100 to get a blocking percentage. The formula is shown below: […]

[2] = molecular target: T1, human CCR8; assay: flow blocking, PBMC CCR8+CD3+; competitor PE-AB6
Method: as §1, §2, §3

[3] = molecular target: T1, human CCR8; assay: flow blocking, PBMC CCR8+CD3+; competitor PE-AB7
Method: as §1, §2, §3

[4] = molecular target: T1, human CCR8; assay: flow blocking, PBMC CCR8+CD3+; competitor PE-AB8
Method: as §1, §2, §3

[5] = molecular target: T1, human CCR8; assay: flow blocking, PBMC CCR8+CD4+; competitor PE-AB1
Method: as §1, §2, §3

[6] = molecular target: T1, human CCR8; assay: flow blocking, PBMC CCR8+CD4+; competitor PE-AB2
Method: as §1, §2, §3

[7] = molecular target: T1, human CCR8; assay: flow blocking, PBMC CCR8+CD4+; competitor PE-AB3
Method: as §1, §2, §3

[8] = molecular target: T1, human CCR8; assay: flow blocking, PBMC CCR8+CD4+; competitor PE-AB4
Method: as §1, §2, §3

[9] = molecular target: T1, human CCR8; assay: flow blocking, PBMC CCR8+CD4+; competitor PE-AB5
Method: as §1, §2, §3

[10] = molecular target: T1, human CCR8; assay: flow blocking, PBMC CCR8+CD4+; competitor PE-AB6
Method: as §1, §2

[11] = molecular target: T1, human CCR8; assay: flow blocking, PBMC CCR8+CD3+; competitor PE-433H
Method: as §1, §2, §3

[12] = molecular target: T1, human CCR8; assay: flow blocking, PBMC CCR8+CD3+; competitor PE-AB10
Method: as §1, §2, §3

[13] = molecular target: T1, human CCR8; assay: flow blocking, PBMC CCR8+CD3+; competitor PE-AB11
Method: as §1, §2, §3

[14] = molecular target: T1, human CCR8; assay: flow blocking, PBMC CCR8+CD3+; competitor PE-AB12
Method: as §1, §2, §3

[15] = molecular target: T1, human CCR8; assay: flow blocking, PBMC CCR8+CD3+; competitor PE-AB13
Method: as §1, §2, §3

[16] = molecular target: T1, human CCR8; assay: flow blocking, PBMC CCR8+CD3+; competitor PE-AB14
Method: as §1, §2, §3

[17] = molecular target: T1, human CCR8; assay: flow blocking, PBMC CCR8+CD3+; competitor PE-AB15
Method: as §1, §2, §3

[18] = molecular target: T1, human CCR8; assay: flow blocking, PBMC CCR8+CD4+; competitor PE-433H
Method: as §1, §2

[19] = molecular target: T1, human CCR8; assay: flow blocking, PBMC CCR8+CD4+; competitor PE-AB10
Method: as §1, §2, §3

[20] = molecular target: T1, human CCR8; assay: flow blocking, PBMC CCR8+CD4+; competitor PE-AB11
Method: as §1, §2, §3

[21] = molecular target: T1, human CCR8; assay: flow blocking, PBMC CCR8+CD4+; competitor PE-AB12
Method: as §1, §2, §3

[22] = molecular target: T1, human CCR8; assay: flow blocking, PBMC CCR8+CD4+; competitor PE-AB13
Method: as §1, §2

[23] = molecular target: T1, human CCR8; assay: flow blocking, PBMC CCR8+CD4+; competitor PE-AB14
Method: as §1, §2

[24] = molecular target: T1, human CCR8; assay: flow blocking, PBMC CCR8+CD4+; competitor PE-AB15
Method: as §1, §2, §3

[25] = molecular target: T1, human CCR8; assay: flow blocking, PBMC CCR8+CD3+; competitor PE-L263G8
Method: as §1, §2, §3

T1 sequence (P51685 whole entry): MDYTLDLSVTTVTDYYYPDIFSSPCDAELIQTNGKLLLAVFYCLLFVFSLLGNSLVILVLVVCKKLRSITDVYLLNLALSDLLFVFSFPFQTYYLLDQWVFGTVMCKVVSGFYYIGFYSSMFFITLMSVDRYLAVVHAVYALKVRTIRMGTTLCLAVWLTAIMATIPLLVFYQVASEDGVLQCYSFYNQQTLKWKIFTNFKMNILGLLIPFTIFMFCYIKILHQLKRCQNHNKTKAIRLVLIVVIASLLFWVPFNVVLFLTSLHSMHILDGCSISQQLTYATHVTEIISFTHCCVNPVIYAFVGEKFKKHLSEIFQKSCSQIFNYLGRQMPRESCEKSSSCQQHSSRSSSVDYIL

% Blocking [1]: -2.94%
MFI [1]: 1020
% Blocking [2]: -8.93%
MFI [2]: 1010
% Blocking [3]: 13.1%
MFI [3]: 1020
% Blocking [4]: 17.8%
MFI [4]: 977
% Blocking [5]: -31.6%
% Positive cells [5]: 2.04%
% Blocking [6]: -22.6%
% Positive cells [6]: 2.01%
% Blocking [7]: -26.3%
% Positive cells [7]: 2.16%
% Blocking [8]: -27%
% Positive cells [8]: 2.26%
% Blocking [9]: -27.7%
% Positive cells [9]: 2.58%
% Blocking [10]: -5.45%
% Positive cells [10]: 2.13%
% Blocking [11]: 43.3%
MFI [11]: 503
% Blocking [12]: 34.4%
MFI [12]: 522
% Blocking [13]: 42.7%
MFI [13]: 532
% Blocking [14]: 48%
MFI [14]: 531
% Blocking [15]: 34.6%
MFI [15]: 579
% Blocking [16]: 41.4%
MFI [16]: 506
% Blocking [17]: 52%
MFI [17]: 412
% Blocking [18]: 38.6%
% Positive cells [18]: 1.08%
% Blocking [19]: -2.7%
% Positive cells [19]: 1.52%
% Blocking [20]: 96.9%
% Positive cells [20]: 0.06%
% Blocking [21]: 98.3%
% Positive cells [21]: 0.03%
% Blocking [22]: 96.5%
% Positive cells [22]: 0.07%
% Blocking [23]: 99.2%
% Positive cells [23]: 0.01%
% Blocking [24]: 93.8%
% Positive cells [24]: 0.08%
% Blocking [25]: 36.6%
MFI [25]: 427
B1: AB11 (antibody, V domains shown)
VH: EVQLVESGGGLVQPKGSLKLSCAASGFAFNTYAMNWVRQAPGKGLEWIARLRSKSNFYATYYADSVKDRFTISRDDSQSMLYLQMNNLKTEDTAVYYCVRGRELGPSYAMDYWGQGTSVTVSS
VL: DIVMTQAAPSVPVTPGESVSISCRSSKSLLHSNGNTYLYWFLQRPGQSPQLLIYRMSNLASGVPDRFSGSGSGTAFTLRISRVEAEDVGVYYCMQHLEYPYTFGGGTKLEIK
notes: Hybridoma monoclonal; also called antibody 11; clone 11

% Blocking [1]: -11.8%
MFI [1]: 1100
% Blocking [2]: -17.3%
MFI [2]: 1080
% Blocking [3]: 26.1%
MFI [3]: 863
% Blocking [4]: 26.9%
MFI [4]: 870
% Blocking [5]: -41.9%
% Positive cells [5]: 2.2%
% Blocking [6]: -38.4%
% Positive cells [6]: 2.27%
% Blocking [7]: -27.5%
% Positive cells [7]: 2.18%
% Blocking [8]: -19.7%
% Positive cells [8]: 2.13%
% Blocking [9]: -8.42%
% Positive cells [9]: 2.19%
% Blocking [10]: -14.4%
% Positive cells [10]: 2.31%
% Blocking [11]: 53%
MFI [11]: 417
% Blocking [12]: 23.7%
MFI [12]: 608
% Blocking [13]: 45.9%
MFI [13]: 502
% Blocking [14]: 48.4%
MFI [14]: 527
% Blocking [15]: -50.2%
MFI [15]: 1330
% Blocking [16]: 46.4%
MFI [16]: 463
% Blocking [17]: 45.2%
MFI [17]: 471
% Blocking [18]: 92.6%
% Positive cells [18]: 0.13%
% Blocking [19]: 91.2%
% Positive cells [19]: 0.13%
% Blocking [20]: 98.5%
% Positive cells [20]: 0.03%
% Blocking [21]: 98.9%
% Positive cells [21]: 0.02%
% Blocking [22]: 93.4%
% Positive cells [22]: 0.13%
% Blocking [23]: 96.9%
% Positive cells [23]: 0.04%
% Blocking [24]: 98.5%
% Positive cells [24]: 0.02%
% Blocking [25]: 13.1%
MFI [25]: 585
B2: AB8 (antibody, V domains shown)
VH: AVQLVESGGGLVQPKESLKISCAASGFIFSNAAMYWVRQAPGKGLQWVARIRTKPKNYATYYIDSVKGRFTISRDDSKSMVYLQMDNLKTEDTAMYYCNTMGLTRAYYFDYWGQGVMVTVSS
VL: DIQMTQSPSFLSASVGDRVTINCKASQNINRYLNWYQQKLGEAPKLLIYNANSLQTGIPSRFSGSGSGTDFTLTIRSLQPEDVATYFCLQHNSWPWTFGGGTKLELK
notes: Hybridoma monoclonal; also called antibody 8; clone 8
